Assay results published in paper PMC12350838.

Assays:
[1] = molecular target: BoDV-1 L-P complex (one L-protein with a tetramer of P-protein) (Borna disease virus 1 (BoDV-1)); assay: cryo-EM structure; Sample 1, RNA-free: co-expressed and co-purified L-P complex used immediately after elution, 0.33 mg/ml on grids; single particle analysis with 2D and 3D classification
[2] = molecular target: BoDV-1 L-P complex (one L-protein with a tetramer of P-protein) (Borna disease virus 1 (BoDV-1)); assay: cryo-EM structure; Sample 2, reaction conditions: L-P complex with 25 μM 23mer template RNA, 20 μM triphosphorylated 6mer primer, 1 mM SAM, 1 mM each NTP, 1 h on ice, diluted to 0.4 mg/ml; single particle analysis, re-extraction in a larger box and 2D classification
[3] = molecular target: Borna disease virus 1 (BoDV-1) large protein (L-protein) (Borna disease virus 1 (BoDV-1)); assay: cryo-EM structure; Sample 1, RNA-free: co-expressed and co-purified L-P complex used immediately after elution, 0.33 mg/ml on grids; single particle analysis with 2D and 3D classification
[4] = molecular target: Borna disease virus 1 (BoDV-1) phosphoprotein (P-protein) (Borna disease virus 1 (BoDV-1)); assay: as above

Substance	percent of particles as tetramers [1] [%]	stoichiometry N [1]	percent of particles as dimers [2] [%]	stoichiometry N [2]	stoichiometry N (P-protein chains per L-protein) [3]	stoichiometry N [4]
BoDV-1 L-P complex (one L-protein with a tetramer of P-protein)	0.2	4	6	2		
Borna disease virus 1 (BoDV-1) phosphoprotein (P-protein) (natural protein)					4	4
